# In the RNAGym collection of RNA variant scans (doi:10.7554/elife.80360):
# B1: CPEB3 Ribozyme (parent)
# chain: GGGGGCCACAGCAGAAGCGUUCACGUCGCGGCCCCUGUCAGAUUCUGGUGAAUCUGCGAAUUCUGCUGU
# Variants of: B1
# Assay: self-cleavage, relative activity (ratio to wild type); higher = more cleavage; co-transcriptional
row,Variant,self-cleavage
1,GGGGGCCACAGCAGAAGCGUUCACGUCUCGGCCCCUGUCACAUUCUGGUGAAUCUGCGAAUUCUGCUGU [G28U G41C],0.163
2,GGGGGCCACAGCAGAAGCGUUCACGUCUCGGCCCCUGUCAUAUUCUGGUGAAUCUGCGAAUUCUGCUGU [G28U G41U],0.155
3,GGGGGCCACAGCAGAAGCGUUCACGUCUCGGCCCCUGUCAGAUUCUAGUGAAUCUGCGAAUUCUGCUGU [G28U G47A],0.173
4,GGGGGCCACAGCAGAAGCGUUCACGUCUCGGCCCCUGUCAGAUUCUCGUGAAUCUGCGAAUUCUGCUGU [G28U G47C],0.205
5,GGGGGCCACAGCAGAAGCGUUCACGUCUCGGCCCCUGUCAGAUUCUUGUGAAUCUGCGAAUUCUGCUGU [G28U G47U],0.151
6,GGGGGCCACAGCAGAAGCGUUCACGUCUCGGCCCCUGUCAGAUUCUGAUGAAUCUGCGAAUUCUGCUGU [G28U G48A],0.255
7,GGGGGCCACAGCAGAAGCGUUCACGUCUCGGCCCCUGUCAGAUUCUGGUAAAUCUGCGAAUUCUGCUGU [G28U G50A],0.237
8,GGGGGCCACAGCAGAAGCGUUCACGUCUCGGCCCCUGUCAGAUUCUGGUCAAUCUGCGAAUUCUGCUGU [G28U G50C],0.183
9,GGGGGCCACAGCAGAAGCGUUCACGUCUCGGCCCCUGUCAGAUUCUGGUGAAUCUGCAAAUUCUGCUGU [G28U G58A],0.185
10,GGGGGCCACAGCAGAAGCGUUCACGUCUCGGCCCCUGUCAGAUUCUGGUGAAUCUGCCAAUUCUGCUGU [G28U G58C],0.177
11,GGGGGCCACAGCAGAAGCGUUCACGUCUCGGCCCCUGUCAGAUUCUGGUGAAUCUGCGAAUUCUCCUGU [G28U G65C],0.132
12,GGGGGCCACAGCAGAAGCGUUCACGUCUCGGCCCCUGUCAGAUUCUGGUGAAUCUGCGAAUUCUGCUCU [G28U G68C],0.243
13,GGGGGCCACAGCAGAAGCGUUCACGUCUCGGCCCCCGUCAGAUUCUGGUGAAUCUGCGAAUUCUGCUGU [G28U U36C],0.135
14,GGGGGCCACAGCAGAAGCGUUCACGUCUCGGCCCCUGACAGAUUCUGGUGAAUCUGCGAAUUCUGCUGU [G28U U38A],0.164
15,GGGGGCCACAGCAGAAGCGUUCACGUCUCGGCCCCUGCCAGAUUCUGGUGAAUCUGCGAAUUCUGCUGU [G28U U38C],0.136
16,GGGGGCCACAGCAGAAGCGUUCACGUCUCGGCCCCUGGCAGAUUCUGGUGAAUCUGCGAAUUCUGCUGU [G28U U38G],0.161
17,GGGGGCCACAGCAGAAGCGUUCACGUCUCGGCCCCUGUCAGACUCUGGUGAAUCUGCGAAUUCUGCUGU [G28U U43C],0.176
18,GGGGGCCACAGCAGAAGCGUUCACGUCUCGGCCCCUGUCAGAUGCUGGUGAAUCUGCGAAUUCUGCUGU [G28U U44G],0.175
19,GGGGGCCACAGCAGAAGCGUUCACGUCUCGGCCCCUGUCAGAUUCAGGUGAAUCUGCGAAUUCUGCUGU [G28U U46A],0.163
20,GGGGGCCACAGCAGAAGCGUUCACGUCUCGGCCCCUGUCAGAUUCCGGUGAAUCUGCGAAUUCUGCUGU [G28U U46C],0.19
21,GGGGGCCACAGCAGAAGCGUUCACGUCUCGGCCCCUGUCAGAUUCGGGUGAAUCUGCGAAUUCUGCUGU [G28U U46G],0.187
22,GGGGGCCACAGCAGAAGCGUUCACGUCUCGGCCCCUGUCAGAUUCUGGAGAAUCUGCGAAUUCUGCUGU [G28U U49A],0.166
23,GGGGGCCACAGCAGAAGCGUUCACGUCUCGGCCCCUGUCAGAUUCUGGCGAAUCUGCGAAUUCUGCUGU [G28U U49C],0.178
24,GGGGGCCACAGCAGAAGCGUUCACGUCUCGGCCCCUGUCAGAUUCUGGGGAAUCUGCGAAUUCUGCUGU [G28U U49G],0.11
25,GGGGGCCACAGCAGAAGCGUUCACGUCUCGGCCCCUGUCAGAUUCUGGUGAAACUGCGAAUUCUGCUGU [G28U U53A],0.188
26,GGGGGCCACAGCAGAAGCGUUCACGUCUCGGCCCCUGUCAGAUUCUGGUGAAGCUGCGAAUUCUGCUGU [G28U U53G],0.22

row,Variant,self-cleavage
1,GGGGGCCACAGCAGAAGCGUUCACGUCUCGGCCCCUGUCAGAUUCUGGUGAAUCAGCGAAUUCUGCUGU [G28U U55A],0.203
2,GGGGGCCACAGCAGAAGCGUUCACGUCUCGGCCCCUGUCAGAUUCUGGUGAAUCCGCGAAUUCUGCUGU [G28U U55C],0.154
3,GGGGGCCACAGCAGAAGCGUUCACGUCUCGGCCCCUGUCAGAUUCUGGUGAAUCUGCGAACUCUGCUGU [G28U U61C],0.11
4,GGGGGCCACAGCAGAAGCGUUCACGUCUCGGCCCCUGUCAGAUUCUGGUGAAUCUGCGAAGUCUGCUGU [G28U U61G],0.221
5,GGGGGCCACAGCAGAAGCGUUCACGUCUCGGCCCCUGUCAGAUUCUGGUGAAUCUGCGAAUACUGCUGU [G28U U62A],0.216
6,GGGGGCCACAGCAGAAGCGUUCACGUCUCGGCCCCUGUCAGAUUCUGGUGAAUCUGCGAAUGCUGCUGU [G28U U62G],0.189
7,GGGGGCCACAGCAGAAGCGUUCACGUCUCGGCCCCUGUCAGAUUCUGGUGAAUCUGCGAAUUCAGCUGU [G28U U64A],0.157
8,GGGGGCCACAGCAGAAGCGUUCACGUCUCGGCCCCUGUCAGAUUCUGGUGAAUCUGCGAAUUCGGCUGU [G28U U64G],0.147
9,GGGGGCCACAGCAGAAGCGUUCACGUCUCGGCCCCUGUCAGAUUCUGGUGAAUCUGCGAAUUCUGCAGU [G28U U67A],0.168
10,GGGGGCCACAGCAGAAGCGUUCACGUCUCGGCCCCUGUCAGAUUCUGGUGAAUCUGCGAAUUCUGCCGU [G28U U67C],0.224
11,GGGGGCCACAGCAGAAGCGUUCACGUCUCGGCCCCUGUCAGAUUCUGGUGAAUCUGCGAAUUCUGCGGU [G28U U67G],0.203
12,GGGGGCCACAGCAGAAGCGUUCACGUCUCGGCCCCUGUCAGAUUCUGGUGAAUCUGCGAAUUCUGCUGG [G28U U69G],0.254
13,GGGGGCCACAGCAGAAGCGUUCACGUCGAGGCCCCUGUCAGAUUCUGGUGAAUCUGCGAAUUCUGCUGU [C29A],0.777
14,GGGGGCCACAGCAGAAGCGUUCACGUCGAGGCCCCUGUCCGAUUCUGGUGAAUCUGCGAAUUCUGCUGU [C29A A40C],0.214
15,GGGGGCCACAGCAGAAGCGUUCACGUCGAGGCCCCUGUCGGAUUCUGGUGAAUCUGCGAAUUCUGCUGU [C29A A40G],0.607
16,GGGGGCCACAGCAGAAGCGUUCACGUCGAGGCCCCUGUCUGAUUCUGGUGAAUCUGCGAAUUCUGCUGU [C29A A40U],0.296
17,GGGGGCCACAGCAGAAGCGUUCACGUCGAGGCCCCUGUCAGCUUCUGGUGAAUCUGCGAAUUCUGCUGU [C29A A42C],0.409
18,GGGGGCCACAGCAGAAGCGUUCACGUCGAGGCCCCUGUCAGGUUCUGGUGAAUCUGCGAAUUCUGCUGU [C29A A42G],0.533
19,GGGGGCCACAGCAGAAGCGUUCACGUCGAGGCCCCUGUCAGUUUCUGGUGAAUCUGCGAAUUCUGCUGU [C29A A42U],0.517
20,GGGGGCCACAGCAGAAGCGUUCACGUCGAGGCCCCUGUCAGAUUCUGGUGGAUCUGCGAAUUCUGCUGU [C29A A51G],0.706
21,GGGGGCCACAGCAGAAGCGUUCACGUCGAGGCCCCUGUCAGAUUCUGGUGUAUCUGCGAAUUCUGCUGU [C29A A51U],0.646
22,GGGGGCCACAGCAGAAGCGUUCACGUCGAGGCCCCUGUCAGAUUCUGGUGACUCUGCGAAUUCUGCUGU [C29A A52C],0.64
23,GGGGGCCACAGCAGAAGCGUUCACGUCGAGGCCCCUGUCAGAUUCUGGUGAGUCUGCGAAUUCUGCUGU [C29A A52G],0.77
24,GGGGGCCACAGCAGAAGCGUUCACGUCGAGGCCCCUGUCAGAUUCUGGUGAUUCUGCGAAUUCUGCUGU [C29A A52U],0.671
25,GGGGGCCACAGCAGAAGCGUUCACGUCGAGGCCCCUGUCAGAUUCUGGUGAAUCUGCGGAUUCUGCUGU [C29A A59G],0.715
26,GGGGGCCACAGCAGAAGCGUUCACGUCGAGGCCCCUGUCAGAUUCUGGUGAAUCUGCGAUUUCUGCUGU [C29A A60U],0.257

row,Variant,self-cleavage
1,GGGGGCCACAGCAGAAGCGUUCACGUCGAGGGCCCUGUCAGAUUCUGGUGAAUCUGCGAAUUCUGCUGU [C29A C32G],0.155
2,GGGGGCCACAGCAGAAGCGUUCACGUCGAGGUCCCUGUCAGAUUCUGGUGAAUCUGCGAAUUCUGCUGU [C29A C32U],0.698
3,GGGGGCCACAGCAGAAGCGUUCACGUCGAGGCACCUGUCAGAUUCUGGUGAAUCUGCGAAUUCUGCUGU [C29A C33A],0.373
4,GGGGGCCACAGCAGAAGCGUUCACGUCGAGGCCACUGUCAGAUUCUGGUGAAUCUGCGAAUUCUGCUGU [C29A C34A],0.334
5,GGGGGCCACAGCAGAAGCGUUCACGUCGAGGCCGCUGUCAGAUUCUGGUGAAUCUGCGAAUUCUGCUGU [C29A C34G],0.22
6,GGGGGCCACAGCAGAAGCGUUCACGUCGAGGCCUCUGUCAGAUUCUGGUGAAUCUGCGAAUUCUGCUGU [C29A C34U],0.702
7,GGGGGCCACAGCAGAAGCGUUCACGUCGAGGCCCGUGUCAGAUUCUGGUGAAUCUGCGAAUUCUGCUGU [C29A C35G],0.276
8,GGGGGCCACAGCAGAAGCGUUCACGUCGAGGCCCUUGUCAGAUUCUGGUGAAUCUGCGAAUUCUGCUGU [C29A C35U],0.496
9,GGGGGCCACAGCAGAAGCGUUCACGUCGAGGCCCCUGUGAGAUUCUGGUGAAUCUGCGAAUUCUGCUGU [C29A C39G],0.431
10,GGGGGCCACAGCAGAAGCGUUCACGUCGAGGCCCCUGUUAGAUUCUGGUGAAUCUGCGAAUUCUGCUGU [C29A C39U],0.372
11,GGGGGCCACAGCAGAAGCGUUCACGUCGAGGCCCCUGUCAGAUUUUGGUGAAUCUGCGAAUUCUGCUGU [C29A C45U],0.731
12,GGGGGCCACAGCAGAAGCGUUCACGUCGAGGCCCCUGUCAGAUUCUGGUGAAUAUGCGAAUUCUGCUGU [C29A C54A],0.312
13,GGGGGCCACAGCAGAAGCGUUCACGUCGAGGCCCCUGUCAGAUUCUGGUGAAUCUGAGAAUUCUGCUGU [C29A C57A],0.279
14,GGGGGCCACAGCAGAAGCGUUCACGUCGAGGCCCCUGUCAGAUUCUGGUGAAUCUGGGAAUUCUGCUGU [C29A C57G],0.225
15,GGGGGCCACAGCAGAAGCGUUCACGUCGAGGCCCCUGUCAGAUUCUGGUGAAUCUGCGAAUUAUGCUGU [C29A C63A],0.355
16,GGGGGCCACAGCAGAAGCGUUCACGUCGAGGCCCCUGUCAGAUUCUGGUGAAUCUGCGAAUUGUGCUGU [C29A C63G],0.286
17,GGGGGCCACAGCAGAAGCGUUCACGUCGAGGCCCCUGUCAGAUUCUGGUGAAUCUGCGAAUUCUGGUGU [C29A C66G],0.365
18,GGGGGCCACAGCAGAAGCGUUCACGUCGAGGCCCCUGUCAGAUUCUGGUGAAUCUGCGAAUUCUGUUGU [C29A C66U],0.664
19,GGGGGCCACAGCAGAAGCGUUCACGUCGAAGCCCCUGUCAGAUUCUGGUGAAUCUGCGAAUUCUGCUGU [C29A G30A],0.264
20,GGGGGCCACAGCAGAAGCGUUCACGUCGACGCCCCUGUCAGAUUCUGGUGAAUCUGCGAAUUCUGCUGU [C29A G30C],0.205
21,GGGGGCCACAGCAGAAGCGUUCACGUCGAUGCCCCUGUCAGAUUCUGGUGAAUCUGCGAAUUCUGCUGU [C29A G30U],0.216
22,GGGGGCCACAGCAGAAGCGUUCACGUCGAGACCCCUGUCAGAUUCUGGUGAAUCUGCGAAUUCUGCUGU [C29A G31A],0.296
23,GGGGGCCACAGCAGAAGCGUUCACGUCGAGCCCCCUGUCAGAUUCUGGUGAAUCUGCGAAUUCUGCUGU [C29A G31C],0.175
24,GGGGGCCACAGCAGAAGCGUUCACGUCGAGUCCCCUGUCAGAUUCUGGUGAAUCUGCGAAUUCUGCUGU [C29A G31U],0.221
25,GGGGGCCACAGCAGAAGCGUUCACGUCGAGGCCCCUCUCAGAUUCUGGUGAAUCUGCGAAUUCUGCUGU [C29A G37C],0.186
26,GGGGGCCACAGCAGAAGCGUUCACGUCGAGGCCCCUUUCAGAUUCUGGUGAAUCUGCGAAUUCUGCUGU [C29A G37U],0.147
